Tests used:
Experiment in all cases: competition; excess ssDNA oligo titrates gp32 off probe
Conditions in all cases: tags: C-terminal His6
gp32 (Aeh1) = molecular target: T1, gp32 (Aeh1) (Aeromonas phage Aeh1)
T1 chain: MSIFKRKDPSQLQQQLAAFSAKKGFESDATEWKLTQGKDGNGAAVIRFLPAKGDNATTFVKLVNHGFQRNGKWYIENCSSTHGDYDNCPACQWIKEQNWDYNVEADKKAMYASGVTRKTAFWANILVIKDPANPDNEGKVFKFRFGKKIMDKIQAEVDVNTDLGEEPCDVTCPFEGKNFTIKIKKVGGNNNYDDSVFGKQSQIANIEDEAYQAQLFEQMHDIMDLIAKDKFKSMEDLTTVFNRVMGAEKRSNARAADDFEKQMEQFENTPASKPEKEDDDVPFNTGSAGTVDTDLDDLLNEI
Experimental: (§1) In this experiment, the effects of these challenges on Rb69 gp32, T4 gp32 and Aeh1 gp32 were compared.
(§2) An experiment was performed to assess whether gp32 molecules from different species of origin were biochemically distinct from one another. Experimental conditions were as follows: reactions were performed in 50 ul volume; final concentration of probe (SA-Tamra2; 5′-tgttaattgagcaagtgtatagagcattraygabtatgcgtggag-3′ (SEQ ID NO:126), here y=thf, b=BHQ2-dT, r=TAMRA-dT, 3′=Bio-TEG) was 100 nM; Rb69 pg32 was used at final concentration of 80 ng/μl, Nfo was present at 33 ng/μl; after 350 sec either water, dsDNA (550 ng human genomic DNA; i.e. approximately 10× mass of oligonucleotide probe) or ssDNA ([…] oligonucleotide of sequence 5′[…]-3′ (SEQ ID NO:127)) was added; buffer conditions were 20 mM Tris-acetate, 50 mM potassium acetate (pH 7.9), 10 mM Magnesium Acetate, 1 mM Dithiothreitol. Measurements were made in a fluorometer manufactured by Embedded System Engineering (ESE, GmbH) with LED excitation of 520 nm and emission at 585 nm.
(§3) Initially, a concentration of gp32 was established which permitted only a very low cutting activity by Nfo nuclease on the fluorophore/quencher probe. At this concentration the availability of gp32 was limited to a minimal quantity for substantial probe protection, and under these conditions it was possible to assess very sensitively whether gp32 was partitioned away from the probe in competition experiments. After monitoring the slow probe cutting for a while, excess double-stranded DNA or single-stranded oligonucleotides were added to assess whether this affected the distribution of gp32 on the probe. […] Clearly Rb69 and Aeh1 gp32 molecules differentiated and partitioned much more effectively in favour of single-stranded DNA than T4 gp32.

gp32 (Rb69) = molecular target: T2, gp32 (Rb69) (Enterobacteria phage RB69)
T2 chain: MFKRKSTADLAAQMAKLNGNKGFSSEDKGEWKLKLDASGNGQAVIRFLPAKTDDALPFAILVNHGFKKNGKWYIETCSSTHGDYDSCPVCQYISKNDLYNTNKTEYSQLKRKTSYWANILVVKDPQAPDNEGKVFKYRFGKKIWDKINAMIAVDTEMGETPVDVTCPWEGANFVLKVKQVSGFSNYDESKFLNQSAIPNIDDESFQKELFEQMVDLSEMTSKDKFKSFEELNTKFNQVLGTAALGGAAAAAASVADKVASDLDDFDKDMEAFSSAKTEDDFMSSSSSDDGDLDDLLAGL
Experimental: as §1, §2, §3

gp32 (T4) = molecular target: T3, gp32 (T4) (Enterobacteria phage T4, UniProt P03695 SEQ:1-301)
T3 sequence: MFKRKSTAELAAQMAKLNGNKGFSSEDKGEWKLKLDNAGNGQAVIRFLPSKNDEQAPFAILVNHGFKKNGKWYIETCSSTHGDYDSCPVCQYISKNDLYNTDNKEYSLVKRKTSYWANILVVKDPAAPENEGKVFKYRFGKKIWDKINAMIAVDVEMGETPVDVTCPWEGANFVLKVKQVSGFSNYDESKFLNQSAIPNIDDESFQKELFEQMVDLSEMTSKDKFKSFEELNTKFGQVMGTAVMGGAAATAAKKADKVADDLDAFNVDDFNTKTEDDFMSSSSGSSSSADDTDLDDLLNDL
Experimental: as §1, §2, §3

Measured: binding result

CTGTATTAGAAGTACATGCTGATCAAGTGACA (ssDNA) [competitor oligonucleotide]
binds: all assays above
